In article PMC2752026 (The EMBO Journal, 2009):

Molecular target: the molecule itself
Experiment: crystal structure

B1: major vault protein MVP, as in intact vault particles purified from rat liver (natural protein, rat (endogenous in rat liver), UniProt Q62667 1-861, looked up)
chain: MATEEAIIRIPPYHYIHVLDQNSNVSRVEVGPKTYIRQDNERVLFAPVRMVTVPPRHYCIVANPVSRDTQSSVLFDITGQVRLRHADQEIRLAQDPFPLYPGEVLEKDITPLQVVLPNTALHLKALLDFEDKNGDKVMAGDEWLFEGPGTYIPQKEVEVVEIIQATVIKQNQALRLRARKECFDREGKGRVTGEEWLVRSVGAYLPAVFEEVLDLVDAVILTEKTALHLRALQNFRDLRGVLHRTGEEWLVTVQDTEAHVPDVYEEVLGVVPITTLGPRHYCVILDPMGPDGKNQLGQKRVVKGEKSFFLQPGERLERGIQDVYVLSEQQGLLLKALQPLEEGESEEKVSHQAGDCWLIRGPLEYVPSAKVEVVEERQAIPLDQNEGIYVQDVKTGKVRAVIGSTYMLTQDEVLWEKELPSGVEELLNLGHDPLADRGQKGTAKPLQPSAPRNKTRVVSYRVPHNAAVQVYDYRAKRARVVFGPELVTLDPEEQFTVLSLSAGRPKRPHARRALCLLLGPDFFTDVITIETADHARLQLQLAYNWHFELKNRNDPAEAAKLFSVPDFVGDACKAIASRVRGAVASVTFDDFHKNSARIIRMAVFGFEMSEDTGPDGTLLPKARDQAVFPQNGLVVSSVDVQSVEPVDQRTRDALQRSVQLAIEITTNSQEAAAKHEAQRLEQEARGRLERQKILDQSEAEKARKELLELEAMSMAVESTGNAKAEAESRAEAARIEGEGSVLQAKLKAQALAIETEAELERVKKVREMELIYARAQLELEVSKAQQLANVEAKKFKEMTEALGPGTIRDLAVAGPEMQVKLLQSLGLKSTLITDGSSPINLFSTAFGLLGLGSDGQPPAQK
  stoichiometry N: 78
